Measured values published in US20150175707.
Residue numbers refer to the chain shown, from its start. Names and notes keep the numbering of the source.

What was measured:
[1] = HP-SEC as in Example 20; Fc:Fc self-oligomerization
[2] = HP-SEC, PBS pH 7.4 as mobile phase; Fc:Fc self-oligomerization
[3] = HP-SEC, 0.15 M NaCl/0.1 M citrate pH 5.0; Fc:Fc self-oligomerization
[4] = HP-SEC, 0.15 M NaCl/0.1 M citrate pH 6.8; Fc:Fc self-oligomerization
[5] = HP-SEC, 0.1 M Na2SO4/0.1 M sodium phosphate pH 6.8; Fc:Fc self-oligomerization
[6] = HP-SEC, 0.1 M Na2SO4/0.1 M sodium phosphate pH 6.8 (Example 23); Fc:Fc self-oligomerization
[7] = HP-SEC as in Example 20, fraction of peak area; Fc:Fc self-oligomerization

B1: IgG1-005-E345R/E430G/S440Y (protein)
chain: ASTKGPSVFPLAPSSKSTSGGTAALGCLVKDYFPEPVTVSWNSGALTSGVHTFPAVLQSSGLYSLSSVVTVPSSSLGTQTYICNVNHKPSNTKVDKRVEPKSCDKTHTCPPCPAPELLGGPSVFLFPPKPKDTLMISRTPEVTCVVVDVSHEDPEVKFNWYVDGVEVHNAKTKPREEQYNSTYRVVSVLTVLHQDWLNGKEYKCKVSNKALPAPIEKTISKAKGQPRRPQVYTLPPSREEMTKNQVSLTCLVKGFYPSDIAVEWESNGQPENNYKTTPPVLDSDGSFFLYSKLTVDKSRWQQGNVFSCSVMHGALHNHYTQKYLSLSPGK
[1]
  % multimeric (HP-SEC): IgG1-005-RGY (79.2% multimeric)
[2]
  % multimers (HP-SEC): IgG1-005-RGY (84% multimers)
[3]
  fraction monomeric species (HP-SEC): >99% of the protein eluting as a monomeric species
  fraction multimer (HP-SEC): The fraction multimer dropped to less than 1%
[4]
  oligomerization (HP-SEC): in citrate pH 6.8 the antibody displayed 84% oligomerization
[5]
  fraction monomeric species (HP-SEC): 21% of the population eluted in a peak observed at the expected elution time for a monomeric species
  fraction oligomer (HP-SEC): a large fraction oligomer which was estimated at 79%
[6]
  fraction monomeric species (HP-SEC): 23% of the population eluted as a monomeric species
  fraction oligomer (HP-SEC): a fraction oligomer of 77%

B2: IgG1-M1-RGY (C. albicans mannan antibody M1g1 with E345R/E430G/S440Y) (protein)
chain: B1 chain
[1]
  fraction oligomer (HP-SEC): IgG1-M1-RGY (74.5%)

B3: IgG1-005-E345R/E430G/K439E/S440Y (protein)
chain: B1 chain with K322E
[2]
  % multimers (HP-SEC): IgG1-005-RGEY (2.7% multimers)

B4: IgG1-005-E345R/E430G/S440K (protein)
chain: B1 chain with Y323K
[2]
  % multimers (HP-SEC): IgG1-005-RGK (2.2% multimers)

B5: IgG1-005-E345R/E430G/Y436I/S440K (protein)
chain: B1 chain with Y319I, Y323K
[2]
  % multimers (HP-SEC): IgG1-005-RGIK (1.8% multimers)

B6: Fc-RGY (IgG1m(f) Fc fragment with E345R, E430G and S440Y) (protein)
chain: EPKSCDKTHTCPPCPAPELLGGPSVFLFPPKPKDTLMISRTPEVTCVVVDVSHEDPEVKFNWYVDGVEVHNAKTKPREEQYNSTYRVVSVLTVLHQDWLNGKEYKCKVSNKALPAPIEKTISKAKGQPRRPQVYTLPPSREEMTKNQVSLTCLVKGFYPSDIAVEWESNGQPENNYKTTPPVLDSDGSFFLYSKLTVDKSRWQQGNVFSCSVMHGALHNHYTQKYLSLSPGK
[7]
  fraction monomers (HP-SEC): approximately 28% monomers
  fraction oligomers (HP-SEC): 72% oligomers distributed over multiple states
